Source: article PMC8225759, “A GH89 human α-N-acetylglucosaminidase (hNAGLU) homologue from gut microbe Bacteroides thetaiotaomicron capable of hydrolyzing heparosan oligosaccharides” (AMB Express, 2021)

Key:
purified protein [1] = substrate: CC(=O)N[C@H]1[C@@H](Oc2ccc3c(C)cc(=O)oc3c2)O[C@H](CO)[C@@H](O)[C@@H]1O; assay: purified protein; settings: pH 5.0; 30.0 °C
purified protein [2] = substrate: CC(=O)N[C@H]1[C@@H](O[C@H]2[C@H](O)[C@@H](O)[C@H](OCCCNC(=O)OCC3c4ccccc4-c4ccccc43)O[C@@H]2C(=O)O)O[C@H](CO)[C@@H](O)[C@@H]1O; assay: purified protein; settings: pH 5.0; 30.0 °C

B1: (Bacteroides thetaiotaomicron VPI-5482) (protein)
chain: TGPPVLKEMCQRLFPRHAQSFLFELLTDSIDTDRFILESSQGKIRIKGNNRNSLAAGLNHYLKNYCHTHVSWYASETVEMPDVLPEIPQPVYIRSKCDNRFFLNYCTFGYTMPYWKWQDWERLIDWMALNGVTMPLAITGQESIWYKVWTDMGLSDEQVRSYFTGPAHLPWHRMSNVDFWQSPLPQSWLKDQEELQKRILEREREFDMTPVLPAFAGHVPAELKTIYPNAKIYQMSQWGGFDEKYRSHFIDPMDSLYSIIQRRFLEEQTKVYGTDHIYGIDPFNEVDSPDWSEDFLANVSSKIYESIHQVDSAAQWLQMTWMFFYDKKKWTQPRIRSFLKAVPDNKLILLDYYCDHTEIWRNTEKYYGNPYIWCYLGNFGGNTMIAGNLNDIDFKIKRLFKEGGDNVYGLGATLEGFDVNPLMYEFVFDQAWDYPVTTDQWITNWSMCRGGNQDANIIKAWRALHQKIYTEHATCGQSVLMNARPRLTGTKSWNTNPGIHYANNDLWQIWKELLKARNINNSDFRFDVINIGRQVLGNLFSEYRDQFTACYNRKDTTGMREWSTRMDNLLLDVDRLLSCDATLSIGKWLQDARNCGATVSEKDYYEENARCILTVWGQQDTQLNDYANRGWGGLTRSFYRERWKRFTDGVIAAVSEDKPFDEDKFHQDITQFEYNWTLQKDSFPIVSEEDPIQIADSLILKYDTYFTKAQ
For B1, the Km (purified protein [1]) was “(4.6 ± 0.4) × 10^−3 mM”, the kcat (purified protein [1]) was 3.68 ± 0.07 s⁻¹ and the kcat/Km (purified protein [1]) was 800000 M⁻¹ s⁻¹. The Km (purified protein [2]) was 2190 ± 160 µM, the kcat (purified protein [2]) was 3.57 ± 0.09 s⁻¹ and the kcat/Km (purified protein [2]) was 1630 M⁻¹ s⁻¹.
